B1: RTN1 (parent)
chain: VVAYLALAALSATISFRIYKSVLQ
B2: STX11 (parent)
chain: FQRAMHDYNQAEMKQRDNCKIRIQ

Variants of: B1
Experiment: protein stability index of a GFP-peptide fusion (GPS, HEK-293T) (PSI 1-6); higher = more stable
Settings: c terminus: a fixed tail appended
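Note: lentivirally expressed fusions sorted by FACS into six bins by GFP to DsRed ratio, PSI derived from sequencing read proportions per bin multiplied by bin number.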

| Variant | protein stability index |
| --- | --- |
| VVAYLALAALSATISFRIYKMVLQ [S21M] | 2.42 |
| VVAYLALAALSATISFRIYKEVLQ [S21E] | 2.38 |
| VVAYLALAALSATISFRIYKTVLQ [S21T] | 3.04 |
| VVAYLALAALSATISFRIYKIVLQ [S21I] | 2.91 |
| VVAYLALAALSATISFRIYKFVLQ [S21F] | 2.18 |
| VVAYLALAALSATISFRIYKHVLQ [S21H] | 1.9 |
| VVAYLALAALSATISFRIYKPVLQ [S21P] | 1.65 |
| VVAYLALAALSATISFRIYKKVLQ [S21K] | 1.45 |
| VVAYLALAALSATISFRIYKVVLQ [S21V] | 4.53 |
| VVAYLALAALSATISFRIYKWVLQ [S21W] | 2.52 |
| VVAYLALAALSATISFRIYKAVLQ [S21A] | 1.89 |
| VVAYLALAALSATISFRIYKNVLQ [S21N] | 1.52 |
| VVAYLALAALSATISFRIYKRVLQ [S21R] | 1.99 |
| VVAYLALAALSATISFRIYKQVLQ [S21Q] | 2.56 |
| VVAYLALAALSATISFRIYKSVIQ [L23I] | 3.31 |
| VVAYLALAALSATISFRIYKSVCQ [L23C] | 3.13 |
| VVAYLALAALSATISFRIYKSVEQ [L23E] | 2.65 |
| VVAYLALAALSATISFRIYKSVVQ [L23V] | 2.5 |
| VVAYLALAALSATISFRIYKSVHQ [L23H] | 3.01 |
| VVAYLALAALSATISFRIYKSVAQ [L23A] | 2.28 |
| VVAYLALAALSATISFRIYKSVYQ [L23Y] | 3.05 |
| VVAYLALAALSATISFRIYKSVMQ [L23M] | 3.52 |
| VVAYLALAALSATISFRIYKSVRQ [L23R] | 2.55 |
| VVAYLALAALSATISFRIYKSVKQ [L23K] | 2.66 |
| VVAYLALAALSATISFRIYKSVQQ [L23Q] | 1.9 |
| VVAYLALAALSATISFRIYKSVSQ [L23S] | 1.66 |

| Variant | protein stability index |
| --- | --- |
| VVAYLALAALSATISFRIYKSVPQ [L23P] | 2.48 |
| VVAYLALAALSATISFRIYKSVLV [Q24V] | 3.35 |
| VVAYLALAALSATISFRIYKSVLG [Q24G] | 2.92 |
| VVAYLALAALSATISFRIYKSVLT [Q24T] | 2.08 |
| VVAYLALAALSATISFRIYKSVLN [Q24N] | 3.38 |
| VVAYLALAALSATISFRIYKSVLL [Q24L] | 2.2 |
| VVAYLALAALSATISFRIYKSVLY [Q24Y] | 3.94 |
| VVAYLALAALSATISFRIYKSVLR [Q24R] | 3.71 |
| VVAYLALAALSATISFRIYKSVLD [Q24D] | 3.01 |
| VVAYLALAALSATISFRIYKSVLI [Q24I] | 1.85 |
| VVAYLALAALSATISFRIYKSVLP [Q24P] | 2.84 |
| VVAYLALAALSATISFRIYKSVLS [Q24S] | 2.03 |
| VVAYLALAALSATISFRIYKSVLK [Q24K] | 2.45 |
| VVAYLALAALSATISFRIYKSVLC [Q24C] | 2.5 |
| VVAYLALAALSATISFRIVKSVLQ [Y19V] | 2.12 |
| VVAYLALAALSATISFRIWKSVLQ [Y19W] | 1.49 |
| VVAYLALAALSATISFRILKSVLQ [Y19L] | 1.46 |
| VVAYLALAALSATISFRIQKSVLQ [Y19Q] | 3.66 |
| VVAYLALAALSATISFRIMKSVLQ [Y19M] | 2.3 |
| VVAYLALAALSATISFRIHKSVLQ [Y19H] | 2.75 |
| VVAYLALAALSATISFRIIKSVLQ [Y19I] | 2.51 |
| VVAYLALAALSATISFRISKSVLQ [Y19S] | 2.1 |
| VVAYLALAALSATISFRIRKSVLQ [Y19R] | 3.4 |
| VVAYLALAALSATISFRIPKSVLQ [Y19P] | 2.41 |
| VVAYLALAALSATISFRIYKSRLQ [V22R] | 2.44 |
| VVAYLALAALSATISFRIYKSSLQ [V22S] | 2.57 |

| Variant | protein stability index |
| --- | --- |
| VVAYLALAALSATISFRIYKSQLQ [V22Q] | 2.7 |
| VVAYLALAALSATISFRIYKSDLQ [V22D] | 3.13 |
| VVAYLALAALSATISFRIYKSALQ [V22A] | 3.36 |
| VVAYLALAALSATISFRIYKSHLQ [V22H] | 2.31 |
| VVAYLALAALSATISFRIYKSILQ [V22I] | 1.83 |
| VVAYLALAALSATISFRIYKSYLQ [V22Y] | 4.13 |
| VVAYLALAALSATISFRIYKSLLQ [V22L] | 2.33 |
| VVAYLALAALSATISFRIYKSTLQ [V22T] | 2.38 |
| VVAYLALAALSATISFRIYKSFLQ [V22F] | 3.99 |
| VVAYLALAALSATISFRIYKSCLQ [V22C] | 3.58 |
| VVAYLALAALSATISFRIYKSELQ [V22E] | 3.42 |
| VVAYLALAALSATISFRIYKSWLQ [V22W] | 4.26 |
| VVAYLALAALSATISFRIYKSKLQ [V22K] | 4.89 |
| VVAYLALAALSATISFRIYRSVLQ [K20R] | 4.17 |
| VVAYLALAALSATISFRIYESVLQ [K20E] | 5.17 |
| VVAYLALAALSATISFRIYWSVLQ [K20W] | 2.77 |
| VVAYLALAALSATISFRIYASVLQ [K20A] | 3.28 |
| VVAYLALAALSATISFRIYHSVLQ [K20H] | 3.98 |
| VVAYLALAALSATISFRIYNSVLQ [K20N] | 2.27 |
| VVAYLALAALSATISFRIYMSVLQ [K20M] | 3.61 |
| VVAYLALAALSATISFRIYTSVLQ [K20T] | 3.84 |
| VVAYLALAALSATISFRIYGSVLQ [K20G] | 3.57 |
| VVAYLALAALSATISFRIYSSVLQ [K20S] | 2.68 |
| VVAYLALAALSATISFRIYPSVLQ [K20P] | 2.58 |
| VVAYLALAALSATISFRIYDSVLQ [K20D] | 2.89 |

Variants of: B2
Experiment: as above
Settings: c terminus: a fixed tail appended

| Variant | protein stability index |
| --- | --- |
| FQRAMHDYNQAEMKQRDNCHIRIQ [K20H] | 3.21 |
| FQRAMHDYNQAEMKQRDNCVIRIQ [K20V] | 2.14 |
| FQRAMHDYNQAEMKQRDNCEIRIQ [K20E] | 2.74 |
| FQRAMHDYNQAEMKQRYNCKIRIQ [D17Y] | 1.89 |
| FQRAMHDYNQAEMKQRVNCKIRIQ [D17V] | 2.73 |
| FQRAMHDYNQAEMKQRHNCKIRIQ [D17H] | 2.15 |
| FQRAMHDYNQAEMKQRNNCKIRIQ [D17N] | 2.28 |
| FQRAMHDYNQAESKQRDNCKIRIQ [M13S] | 3.03 |
| FQRAMHDYNQAELKQRDNCKIRIQ [M13L] | 2.35 |
| FQRAMHDYNQAEHKQRDNCKIRIQ [M13H] | 2.65 |
| FQRAMHDYNQAENKQRDNCKIRIQ [M13N] | 3.5 |
| FQRAMHDYNPAEMKQRDNCKIRIQ [Q10P] | 2.01 |
| FQRAMHDYNRAEMKQRDNCKIRIQ [Q10R] | 2.06 |
| FQRAMHDYNGAEMKQRDNCKIRIQ [Q10G] | 2.45 |
| FQRAMHDYNKAEMKQRDNCKIRIQ [Q10K] | 2.73 |
| FQRAMHDYNSAEMKQRDNCKIRIQ [Q10S] | 3.35 |
| FQRAMHDYNDAEMKQRDNCKIRIQ [Q10D] | 2.59 |
